Reference: ChEMBL document CHEMBL2074141, “Comparison of lactate transport in astroglial cells and monocarboxylate transporter 1 (MCT 1) expressing Xenopus laevis oocytes. Expression of two different monocarboxylate transporters in astroglial cells and neurons” (J Biol Chem, 1997)

Substrate: C[C@@H](O)C(=O)O
Assay: TP_TRANSPORTER: uptake in Xenopus laevis oocytes
Format: functional, cell-based
Conditions: Oocyte

B1: Monocarboxylate transporter 1 (Rattus norvegicus), P53987 (protein)
chain: MPPAIGGPVGYTPPDGGWGWAVVVGAFISIGFSYAFPKSITVFFKEIEIIFSATTSEVSWISSIMLAVMYAGGPISSILVNKYGSRPVMIAGGCLSGCGLIAASFCNTVQELYFCIGVIGGLGLAFNLNPALTMIGKYFYKKRPLANGLAMAGSPVFLSTLAPLNQAFFGIFGWRGSFLILGGLLLNCCVAGSLMRPIGPQQGKVEKLKSKESLQEAGKSDANTDLIGGSPKGEKLSVFQTVNKFLDLSLFTHRGFLLYLSGNVVMFFGLFTPLVFLSNYGKSKHFSSEKSAFLLSILAFVDMVARPSMGLAANTRWIRPRVQYFFAASVVANGVCHLLAPLSTTYVGFCIYAGVFGFAFGWLSSVLFETLMDLVGPQRFSSAVGLVTIVECCPVLLGPPLLGRLNDMYGDYKYTYWACGVILIIAGLYLFIGMGINYRLVAKEQKAEEKKRDGKEDETSTDVDEKPKKTMKETQSPAPLQNSSGDPAEEESPV
B1 was tested. Which Km did it give?
Its Km is 5.6 mM.
